Test results published in paper doi:10.1101/2020.08.11.244863.

How the values were obtained:
[1] = target: SARS-CoV-2 Nsp15 H235A (SARS-CoV-2); assay: SEC
[2] = target: SARS-CoV-2 Nsp15 H235A (SARS-CoV-2); assay: cryo-EM structure
[3] = target: SARS-CoV-2 Nsp15 H250A (SARS-CoV-2); assay: SEC

SARS-CoV-2 Nsp15 H235A (enzyme)
stoichiometry N [1]: 6 | stoichiometry N [2]: 6

SARS-CoV-2 Nsp15 H250A (enzyme)
stoichiometry N [3]: 6
